Measurements taken from PMC4353692.

Target: Manduca sexta V-ATPase subunit c (c ring) (Manduca sexta (endogenous in midgut))
Assay: cryo-EM structure; M. sexta V-ATPase holoenzyme purified from tissue, in C12E10; 9.4 Å reconstruction (gold standard FSC 0.143); homology models of the subunits flexibly fitted by MDFF; side chains not resolved

stoichiometry N: 8
Substance: Manduca sexta V-ATPase subunit c (c ring) (natural protein)
